This test addresses human HER3 receptor (human) (UniProt P21860). The test can be described thus: cell-based or functional assay.

Experimental findings from patent publication US20180274043A1 are described below.

Substance “neuregulin-1 (from UniProt Q02297 177-241) (ligand)” showed a fold induction of 6×JNK-Luc reporter activity at 100 ng/ml NRG1 of 4.2 fold and a fold induction of JNK-Luc (3 copies of AP-1) reporter activity at 100 ng/ml NRG1 of 2.6 fold.
